This note sets out measurements from publication PMC4229625.

In the assay the target is GST-Ana2 phosphorylated by active Plk4 (MBP-Plk4) (Drosophila) (UniProt Q9XZ31). In words: pull-down; recombinant GST-Ana2 (or its fragments or mutants) on beads, incubated with active MBP-Plk4 or inactive MBP-Plk4^KD, then with ^35S-Met-labeled proteins made by in vitro transcription and translation; SDS-PAGE and autoradiography.
Chain of UniProt Q9XZ31 (Q9XZ31 entry or part of it): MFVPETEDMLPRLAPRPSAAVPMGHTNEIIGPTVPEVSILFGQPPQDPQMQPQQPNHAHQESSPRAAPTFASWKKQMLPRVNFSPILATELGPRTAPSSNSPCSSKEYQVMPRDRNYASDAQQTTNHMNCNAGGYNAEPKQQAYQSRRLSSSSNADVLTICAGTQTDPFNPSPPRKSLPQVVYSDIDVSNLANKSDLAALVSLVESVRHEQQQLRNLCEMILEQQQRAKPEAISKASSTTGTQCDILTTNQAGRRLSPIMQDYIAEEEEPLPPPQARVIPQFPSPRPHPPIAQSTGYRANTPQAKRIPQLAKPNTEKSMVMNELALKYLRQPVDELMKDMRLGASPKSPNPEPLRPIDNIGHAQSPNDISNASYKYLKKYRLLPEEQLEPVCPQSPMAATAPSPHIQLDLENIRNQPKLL

For the substance “^35S-Met-labeled Bld10 (natural protein)”, the fold increase of binding against Ana2 treated with inactive Plk4 is 3.5 fold.
